Holding throughout (type): cell-based, human
For assay [1], the system named is NF-AT site. Briefly: Secreted alkaline phosphatase reporter in Jurkat Tag cells, NF-AT reporter. The conditions noted are these: transfection, 1 uM ionomycin plus 20 ng/ml PMA. How it is done:
(§1) Jurkat Tag cells were transfected with vector plasmid (control) or with the dominant negative NF-ATc plasmid, plus the indicated secreted alkaline phosphatase reporter plasmid. Transfected cells were transferred to fresh culture medium 24 hours after transfection and secreted alkaline phosphatase activity was measured (Clipstone and Crabtree (1992) Nature 357: 695-698) 16 to 24 hours later, after stimulation with 1 uM ionomycin plus 20 ng/ml PMA (NF-AT and IL-2 reporters), 20 ng/ml PMA alone (AP-1 reporter) or no stimulation (RSV reporter). Bars indicate, secreted alkaline phosphatase activity from cells transfected with the dominant negative NF-ATc as a percentage of the activity from cells transfected in parallel with control plasmid, and represent data obtained from (n) independent transfections. The dominant negative NF-ATc consists of a carboxy terminal truncation of the epitope tagged NF-ATc expression plasmid extending to the PvuII site at amino acid 463.
(§2) The dominant negative NF-ATc used consists of a carboxy terminal truncation of the epitope tagged NF-ATc expression plasmid (supra) extending to the PvuII site at amino acid 463.

Assay [2] relates to RSV promoter and enhancer. Briefly: Secreted alkaline phosphatase reporter in Jurkat Tag cells, RSV reporter. The conditions noted are these: transfection, no stimulation. As for the experimental part:
as §1, §2

For assay [3], the system named is IL-2 promoter. Briefly: Secreted alkaline phosphatase reporter in Jurkat Tag cells, IL-2 reporter. The conditions noted are these: transfection, 1 uM ionomycin plus 20 ng/ml PMA. How it is done: as §1, §2
In assay [4] the test system is AP-1 site. Briefly: Secreted alkaline phosphatase reporter in Jurkat Tag cells, AP-1 reporter. The conditions noted are these: transfection, 20 ng/ml PMA alone. As for the experimental part: as §1, §2

Here are results for 1 molecule from US6875571B2, “NF-AT polypeptides and polynucleotides and screening methods for immunosuppressive agents” (The Board of Trustees of the Leland Stanford Junior …, priority 1991, dated 2005).

B1: dominant negative NF-ATc: carboxy terminal truncation of the epitope tagged NF-ATc expression plasmid extending to the PvuII site at amino acid 463 (protein, UniProt Q13469 1-463, looked up, fragment)
chain: MNAPERQPQPDGGDAPGHEPGGSPQDELDFSILFDYEYLNPNEEEPNAHKVASPPSGPAYPDDVLDYGLKPYSPLASLSGEPPGRFGEPDRVGPQKFLSAAKPAGASGLSPRIEITPSHELIQAVGPLRMRDAGLLVEQPPLAGVAASPRFTLPVPGFEGYREPLCLSPASSGSSASFISDTFSPYTSPCVSPNNGGPDDLCPQFQNIPAHYSPRTSPIMSPRTSLAEDSCLGRHSPVPRPASRSSSPGAKRRHSCAEALVALPPGASPQRSRSPSPQPSSHVAPQDHGSPAGYPPVAGSAVIMDALNSLATDSPCGIPPKMWKTSPDPSPVSAAPSKAGLPRHIYPAVEFLGPCEQGERRNSAPESILLVPPTWPKPLVPAIPICSIPVTASLPPLEWPLSSQSGSYELRIEVQPKPHHRAHYETEGSRGAVKAPTGGHPVVQLHGYMENKPLGLQIFIGTA
modifications: epitope tag
Regarding B1, the “inhibition of transcription directed by the NF-AT site” value in assay [1] was “more than 90%”. In addition, in assay [2], the “transcription directed by the RSV promoter and enhancer” value was “relatively unaffected”. For the same molecule, the “inhibition of IL-2 promoter function” value in assay [3] is recorded as “more than 90%”. Moreover, the “transcription directed by the AP-1 site” value in assay [4] is “relatively unaffected”.
